Results taken from patent publication US20130217145A1 (published 2013).

Legend:
Test in all cases: FCS competition against 2 nM Alexa488-PIVKAII (13-27) premixed with 10 nM mAb 3C10
[1] = target: T1, Gla domain Protein S sequence 15 peptide
T1 construct: Homologous series peptide; also called PIVKAII Gla domain (13-27) analog, Protein S
T1 peptide: LERECIEELCNKEEA
Protocol: (§1) FCS measurements were performed on each sample after overnight incubation.

[2] = target: T2, Gla domain Factor X sequence 12 peptide
T2 construct: Homologous series peptide; also called PIVKAII Gla domain (13-27) analog, Factor X
T2 peptide: LERECMEETCSYEEA
Protocol: as §1

[3] = target: T3, Gla domain Protein C sequence 14 peptide
T3 construct: Homologous series peptide; also called PIVKAII Gla domain (13-27) analog, Protein C
T3 peptide: LERECIEEICDFEEA
Protocol: as §1

[4] = target: T4, Gla domain Factor VII sequence 13 peptide
T4 construct: Homologous series peptide; also called PIVKAII Gla domain (13-27) analog, Factor VII
T4 peptide: LERECKEEQCSFEEA
Protocol: as §1

[5] = target: T5, Gla domain Factor IX sequence 11 peptide
T5 construct: Homologous series peptide; also called PIVKAII Gla domain (13-27) analog, Factor IX
T5 peptide: LERECMEEKCSFEEA
Protocol: as §1

[6] = target: T6, Gla domain Protein Z sequence 16 peptide
T6 construct: Homologous series peptide; also called PIVKAII Gla domain (13-27) analog, Protein Z
T6 peptide: LEKECYEEICVYEEA
Protocol: as §1

Measured: binding result

B1: Anti-PIVKA-II monoclonal antibody 3C10 (antibody, V domains shown)
VH: EVQLVESGGDLVKPGGSLKLSCAASGFTFSSYGMSWVRQTPDKRLEWVATISRGGSSTYYPDSVKGRFTISRDNAKNNLYLQMSSLKSEDTAMYYCASLNYGNFFDYWGQGTTLTVSS
VL: DVVMTQTPLSLPVSLGDQASISCRSSQSLVHSNGNTYLHWYLQKPGQSPKLLIYKVSNRFSGVPDRFSGSGSGTDFTLKISRVEAEDLGVYFCSQNRHVPPTFGGGTKLEIKR
notes: Mouse hybridoma antibody from a GANP transgenic C57BL/6 mouse; For the Kd measurement the antibody carried Black Hole Quencher (I.R. 2.3); also called mAb 3C10; clone 3C10
no binding: all assays above
